Test results reported in patent US20140242080A1 (Hoffmann-La Roche, published 2014).

T1: human CEA expressed on tumor cells (LS-174T, A549-huCEA, MKN-45, MC38-huCEA, HPAFII, BxPC-3, ASPC-1) (human, UniProt P06731 35-685)
T1 construct: whole, on cells; also called Carcinoembryonic antigen; CEACAM5
T1 sequence (looked up): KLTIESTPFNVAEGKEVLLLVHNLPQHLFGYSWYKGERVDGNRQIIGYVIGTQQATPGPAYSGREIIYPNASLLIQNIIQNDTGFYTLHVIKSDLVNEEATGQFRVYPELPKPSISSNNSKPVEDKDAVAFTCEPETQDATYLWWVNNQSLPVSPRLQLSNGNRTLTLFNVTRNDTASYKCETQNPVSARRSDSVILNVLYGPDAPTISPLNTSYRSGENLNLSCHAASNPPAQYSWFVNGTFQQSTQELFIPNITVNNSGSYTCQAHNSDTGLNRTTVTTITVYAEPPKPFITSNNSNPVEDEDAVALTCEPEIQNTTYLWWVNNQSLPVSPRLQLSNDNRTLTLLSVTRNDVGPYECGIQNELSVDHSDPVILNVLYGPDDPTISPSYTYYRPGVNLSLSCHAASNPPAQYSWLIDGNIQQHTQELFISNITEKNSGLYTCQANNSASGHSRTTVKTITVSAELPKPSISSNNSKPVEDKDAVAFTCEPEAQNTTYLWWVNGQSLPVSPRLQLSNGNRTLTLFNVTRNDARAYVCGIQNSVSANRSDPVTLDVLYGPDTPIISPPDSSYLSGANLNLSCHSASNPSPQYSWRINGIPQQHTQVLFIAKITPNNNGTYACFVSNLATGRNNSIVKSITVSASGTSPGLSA

T2: human NABA-avi-his (human)
T2 construct: Chimeric antigen with a C-terminal avi 6his tag; also called recombinant tumor target antigen
T2 chain: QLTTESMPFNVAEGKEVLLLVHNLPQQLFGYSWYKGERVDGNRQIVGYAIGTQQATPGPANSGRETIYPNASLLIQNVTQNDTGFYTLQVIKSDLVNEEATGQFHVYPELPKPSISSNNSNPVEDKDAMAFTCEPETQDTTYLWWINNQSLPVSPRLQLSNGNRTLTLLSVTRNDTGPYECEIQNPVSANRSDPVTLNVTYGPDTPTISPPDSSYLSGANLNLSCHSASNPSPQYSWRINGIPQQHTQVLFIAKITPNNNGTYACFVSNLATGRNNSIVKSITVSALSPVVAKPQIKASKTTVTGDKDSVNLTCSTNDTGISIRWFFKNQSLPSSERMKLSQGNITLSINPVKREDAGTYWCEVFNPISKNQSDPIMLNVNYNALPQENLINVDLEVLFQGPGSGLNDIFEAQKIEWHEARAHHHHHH

B1: 2 + 1 IgG Crossfab, inverted; CL/CH1 exchange (CH1A1A/V9) (anti-CEA/anti-huCD3) (bispecific antibody)
chain 1: QVQLVQSGAEVKKPGASVKVSCKASGYTFTEFGMNWVRQAPGQGLEWMGWINTKTGEATYVEEFKGRVTFTTDTSTSTAYMELRSLRSDDTAVYYCARWDFAYYVEAMDYWGQGTTVTVSSASTKGPSVFPLAPSSKSTSGGTAALGCLVKDYFPEPVTVSWNSGALTSGVHTFPAVLQSSGLYSLSSVVTVPSSSLGTQTYICNVNHKPSNTKVDKKVEPKSCDKTHTCPPCPAPEAAGGPSVFLFPPKPKDTLMISRTPEVTCVVVDVSHEDPEVKFNWYVDGVEVHNAKTKPREEQYNSTYRVVSVLTVLHQDWLNGKEYKCKVSNKALGAPIEKTISKAKGQPREPQVCTLPPSRDELTKNQVSLSCAVKGFYPSDIAVEWESNGQPENNYKTTPPVLDSDGSFFLVSKLTVDKSRWQQGNVFSCSVMHEALHNHYTQKSLSLSPGK
chain 2: DIQMTQSPSSLSASVGDRVTITCKASAAVGTYVAWYQQKPGKAPKLLIYSASYRKRGVPSRFSGSGSGTDFTLTISSLQPEDFATYYCHQYYTYPLFTFGQGTKLEIKRTVAAPSVFIFPPSDEQLKSGTASVVCLLNNFYPREAKVQWKVDNALQSGNSQESVTEQDSKDSTYSLSSTLTLSKADYEKHKVYACEVTHQGLSSPVTKSFNRGEC
chain 3: DIQMTQSPSSLSASVGDRVTITCRASQDIRNYLNWYQQKPGKAPKLLIYYTSRLESGVPSRFSGSGSGTDYTLTISSLQPEDFATYYCQQGNTLPWTFGQGTKVEIKSSASTKGPSVFPLAPSSKSTSGGTAALGCLVKDYFPEPVTVSWNSGALTSGVHTFPAVLQSSGLYSLSSVVTVPSSSLGTQTYICNVNHKPSNTKVDKKVEPKSC
chain 4: not shown
notes: also called CL/CH1-exchange construct
B2: 2 + 1 IgG Crossfab, inverted; VL/VH exchange (CH1A1A/V9) (anti-CEA/anti-huCD3) (bispecific antibody)
chain 1: EVQLVESGGGLVQPGGSLRLSCAASGYSFTGYTMNWVRQAPGKGLEWVALINPYKGVSTYNQKFKDRFTISVDKSKNTAYLQMNSLRAEDTAVYYCARSGYYGDSDWYFDVWGQGTLVTVSSASVAAPSVFIFPPSDEQLKSGTASVVCLLNNFYPREAKVQWKVDNALQSGNSQESVTEQDSKDSTYSLSSTLTLSKADYEKHKVYACEVTHQGLSSPVTKSFNRGEC
chain 2: not shown
chain 3: QVQLVQSGAEVKKPGASVKVSCKASGYTFTEFGMNWVRQAPGQGLEWMGWINTKTGEATYVEEFKGRVTFTTDTSTSTAYMELRSLRSDDTAVYYCARWDFAYYVEAMDYWGQGTTVTVSSASTKGPSVFPLAPSSKSTSGGTAALGCLVKDYFPEPVTVSWNSGALTSGVHTFPAVLQSSGLYSLSSVVTVPSSSLGTQTYICNVNHKPSNTKVDKKVEPKSCDKTHTCPPCPAPEAAGGPSVFLFPPKPKDTLMISRTPEVTCVVVDVSHEDPEVKFNWYVDGVEVHNAKTKPREEQYNSTYRVVSVLTVLHQDWLNGKEYKCKVSNKALGAPIEKTISKAKGQPREPQVCTLPPSRDELTKNQVSLSCAVKGFYPSDIAVEWESNGQPENNYKTTPPVLDSDGSFFLVSKLTVDKSRWQQGNVFSCSVMHEALHNHYTQKSLSLSPGK
chain 4: DIQMTQSPSSLSASVGDRVTITCKASAAVGTYVAWYQQKPGKAPKLLIYSASYRKRGVPSRFSGSGSGTDFTLTISSLQPEDFATYYCHQYYTYPLFTFGQGTKLEIKRTVAAPSVFIFPPSDEQLKSGTASVVCLLNNFYPREAKVQWKVDNALQSGNSQESVTEQDSKDSTYSLSSTLTLSKADYEKHKVYACEVTHQGLSSPVTKSFNRGEC
notes: also called VL/VH-exchange construct
B3: CEA TCB (2+1 Crossfab-IgG P329G LALA inverted) (bispecific antibody)
chain 1: DIQMTQSPSSLSASVGDRVTITCKASAAVGTYVAWYQQKPGKAPKLLIYSASYRKRGVPSRFSGSGSGTDFTLTISSLQPEDFATYYCHQYYTYPLFTFGQGTKLEIKRTVAAPSVFIFPPSDEQLKSGTASVVCLLNNFYPREAKVQWKVDNALQSGNSQESVTEQDSKDSTYSLSSTLTLSKADYEKHKVYACEVTHQGLSSPVTKSFNRGEC
chain 2: QAVVTQEPSLTVSPGGTVTLTCGSSTGAVTTSNYANWVQEKPGQAFRGLIGGTNKRAPGTPARFSGSLLGGKAALTLSGAQPEDEAEYYCALWYSNLWVFGGGTKLTVLSSASTKGPSVFPLAPSSKSTSGGTAALGCLVKDYFPEPVTVSWNSGALTSGVHTFPAVLQSSGLYSLSSVVTVPSSSLGTQTYICNVNHKPSNTKVDKKVEPKSC
chain 3: not shown
chain 4: QVQLVQSGAEVKKPGASVKVSCKASGYTFTEFGMNWVRQAPGQGLEWMGWINTKTGEATYVEEFKGRVTFTTDTSTSTAYMELRSLRSDDTAVYYCARWDFAYYVEAMDYWGQGTTVTVSSASTKGPSVFPLAPSSKSTSGGTAALGCLVKDYFPEPVTVSWNSGALTSGVHTFPAVLQSSGLYSLSSVVTVPSSSLGTQTYICNVNHKPSNTKVDKKVEPKSCDKTHTCPPCPAPEAAGGPSVFLFPPKPKDTLMISRTPEVTCVVVDVSHEDPEVKFNWYVDGVEVHNAKTKPREEQYNSTYRVVSVLTVLHQDWLNGKEYKCKVSNKALGAPIEKTISKAKGQPREPQVCTLPPSRDELTKNQVSLSCAVKGFYPSDIAVEWESNGQPENNYKTTPPVLDSDGSFFLVSKLTVDKSRWQQGNVFSCSVMHEALHNHYTQKSLSLSPGK
notes: CH1A1A 98/99 2F1 as anti-CEA and humanized CH2527 as anti-CD3 antibody; also called CEA TCB antibody

Experiments:
[1] = molecular target: T1, human CEA expressed on tumor cells …; assay: flow cytometry on LS-174T cells
Protocol: Binding of the different bispecific constructs to CD3 on Jurkat cells (ATCC #TIB-152), and the respective tumor antigen on target cells, was determined by FACS. Briefly, cells were harvested, counted and checked for viability. 0.15-0.2 million cells per well (in PBS containing 0.1% BSA; 90 μl) were plated in a round-bottom 96-well plate and incubated with the indicated concentration of the bispecific constructs and corresponding IgG controls (10 μl) for 30 min at 4° C. […] After the incubation, cells were centrifuged (5 min, 350×g), washed with 150 μl PBS containing 0.1% BSA, resuspended and incubated for further 30 min at 4° C. with 12 μl/well of a FITC- or PE-conjugated secondary antibody. Bound constructs were detected using a FACSCantoII (Software FACS Diva). The “(scFv)₂” molecule was detected using a FITC-conjugated anti-His antibody (Lucerna, #RHIS-45F-Z). […] EC50 values were calculated using the GraphPad Prism software.
As a control, the equivalent maximum concentration of the corresponding IgGs and the background staining due to the labeled 2ndary antibody (goat anti-human FITC-conjugated AffiniPure F(ab′)2 Fragment, FcγFragment-specific, Jackson Immuno Research Lab #109-096-098) were assessed as well.

[2] = molecular target: T1, human CEA expressed on tumor cells …; assay: cell-based or functional assay
[3] = molecular target: T3, human CD3 expressed on Jurkat cells (human, UniProt P07766 23-207); assay: flow cytometry on Jurkat cells
T3 construct: CD3 complex on Jurkat T cells; also called CD3 on Jurkat cells; huCD3
T3 sequence (P07766 23-207 limits assumed): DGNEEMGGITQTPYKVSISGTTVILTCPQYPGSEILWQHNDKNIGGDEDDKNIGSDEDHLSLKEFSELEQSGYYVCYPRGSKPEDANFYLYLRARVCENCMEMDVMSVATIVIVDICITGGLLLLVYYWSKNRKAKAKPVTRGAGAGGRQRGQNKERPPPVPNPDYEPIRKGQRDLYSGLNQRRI

[4] = molecular target: T1, human CEA expressed on tumor cells …; assay: cell-based or functional assay; remark: listed apart in the source
human NABA-avi-his [5] = molecular target: T2, human NABA-avi-his; assay: SPR Biacore T100, 25 C; t1/2 = ln 2/koff
Protocol: (§1) Surface plasmon resonance (SPR) experiments were performed on a Biacore T100 at 25° C. with HBS-EP as running buffer (0.01 M HEPES pH 7.4, 0.15 M NaCl, 3 mM EDTA, 0.005% Surfactant P20, Biacore, Freiburg/Germany).
(§2) Kinetic constants were derived using the Biacore T200 Evaluation Software (vAA, Biacore AB, Uppsala/Sweden), to fit rate equations for 1:1 Langmuir binding by numerical integration. The half-life (t_{1/2}) of the interaction was calculated using following formula: t_{1/2}=ln 2/koff.

[6] = molecular target: T4, human CD3ε stalk-Fc (knob)-Avi/CD3δ-stalk-Fc(hole) (human); assay: SPR Biacore T100, 25 C; t1/2 = ln 2/koff
T4 construct: also called Human CD3ε/CD3δ; recombinant CD3ε/CD3δ
T4 sequence (chain, as listed by the source mutant limits assumed, chain 1 of 2): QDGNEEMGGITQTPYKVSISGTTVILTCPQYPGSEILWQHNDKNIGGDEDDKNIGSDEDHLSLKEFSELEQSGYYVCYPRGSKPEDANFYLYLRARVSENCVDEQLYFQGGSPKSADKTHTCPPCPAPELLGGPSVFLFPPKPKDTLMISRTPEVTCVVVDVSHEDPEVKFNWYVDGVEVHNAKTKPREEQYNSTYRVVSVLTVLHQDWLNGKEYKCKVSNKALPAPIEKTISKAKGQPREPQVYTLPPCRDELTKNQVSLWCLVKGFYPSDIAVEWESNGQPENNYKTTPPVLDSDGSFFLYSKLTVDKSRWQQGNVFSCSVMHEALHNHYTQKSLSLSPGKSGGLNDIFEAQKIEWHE
T4 sequence (chain, as listed by the source mutant limits assumed, chain 2 of 2): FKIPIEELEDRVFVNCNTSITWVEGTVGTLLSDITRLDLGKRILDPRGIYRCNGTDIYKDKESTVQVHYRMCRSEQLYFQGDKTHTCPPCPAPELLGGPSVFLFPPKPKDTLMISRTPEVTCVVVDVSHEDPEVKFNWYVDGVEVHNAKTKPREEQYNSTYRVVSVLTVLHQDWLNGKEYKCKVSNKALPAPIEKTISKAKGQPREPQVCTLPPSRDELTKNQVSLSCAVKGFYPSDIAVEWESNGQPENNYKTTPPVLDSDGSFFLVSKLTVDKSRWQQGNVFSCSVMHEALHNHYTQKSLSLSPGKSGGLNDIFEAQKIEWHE
Protocol: as §1, §2

human NABA-avi-his [7] = molecular target: T2, human NABA-avi-his; assay: SPR Biacore T100, 25 C; TCB captured via anti-human Fab, antigen as analyte
[8] = molecular target: T4, human CD3ε stalk-Fc …; assay: as above
[9] = molecular target: T1, human CEA expressed on tumor cells …; assay: flow cytometry on A549-huCEA cells
Protocol: Briefly, cells were harvested, counted, checked for viability and resuspended at 2×10⁶ cells/ml in FACS buffer (100 μl PBS 0.1% BSA).

| Binder | EC50 [1] [nM] | EC50 of T cell-mediated killing (LDH release), LS-174T cells, human PBMCs E:T 10:1, 28 h [2] [nM] | EC50 of T cell-mediated killing (LDH release), MKN-45 cells, human PBMCs E:T 10:1, 28 h [2] [nM] | EC50 [3] [nM] | EC50 of T cell-mediated killing (LDH release), A549-hCEA cells, cynomolgus PBMCs E:T 10:1, 40 h [2] [nM] | EC50 of T cell-mediated killing (LDH release), A549-hCEA cells, human PBMCs E:T 10:1, 40 h [2] [nM] | EC50 [pM] 48 h of T-cell mediated killing (LDH release), ASPC1 cells, human PBMCs E:T 10:1 [4] [pM] | EC50 [pM] 48 h of T-cell mediated killing (LDH release), BxPC-3 cells, human PBMCs E:T 10:1 [4] [pM] | EC50 [pM] 48 h of T-cell mediated killing (LDH release), HPAFII cells, human PBMCs E:T 10:1 [4] [pM] | t1/2 (human NABA-avi-his [5]) [min] | t1/2 [6] [min] | Kd (human NABA-avi-his [7]) [nM] | koff (human NABA-avi-his [7]) [s⁻¹] | kon (human NABA-avi-his [7]) [M⁻¹ s⁻¹] | Kd [8] [nM] | koff [8] [s⁻¹] | kon [8] [M⁻¹ s⁻¹] | EC50 [9] [nM] |
| --- | --- | --- | --- | --- | --- | --- | --- | --- | --- | --- | --- | --- | --- | --- | --- | --- | --- | --- |
| B1 | 6.7 | 0.673 | 0.115 | 3.9 | – | – | – | – | – | – | – | – | – | – | – | – | – | – |
| B2 | 9.3 | 0.955 | 0.243 | 4.6 | – | – | – | – | – | – | – | – | – | – | – | – | – | – |
| B3 | – | – | – | – | 0.102 | 0.306 | 846 | 3780 | 667 | 5.3 | 5.7 | 62.4 | 0.00218 | 34900 | 75.3 | 0.00203 | 26900 | 6.6 |
